From patent US20080182249A1, “Expression systems for mammalian and mycobacterial desaturases” (priority 2006, published 2008) come the findings set out here.

Where “and” joins values, the source holds several entries; their conditions need not be identical. Identical values can stand only once.

One series deals with transgenic L8-14C. The series can be described thus: Fatty acid profile of transgenic L8-14C expressing human SCD constructs. The class given is cell-based, Saccharomyces cerevisiae. The following applies: for 16:0 / 16:1 / 18:0 / 18:1: percentage of total C16 and C18 fatty acids detected.
The target of another series is T1, mSCD1 (Mus musculus, UniProt P13516).
T1 construct: 6xHis (from pYES-DEST52) (C); made in house; host or cells: mSCD1: Saccharomyces cerevisiae (OLE1-deficient strain L8-14C), used as microsomes; cyt b5 and cyt b5 reductase: Escherichia coli
T1 sequence (P13516 1-355): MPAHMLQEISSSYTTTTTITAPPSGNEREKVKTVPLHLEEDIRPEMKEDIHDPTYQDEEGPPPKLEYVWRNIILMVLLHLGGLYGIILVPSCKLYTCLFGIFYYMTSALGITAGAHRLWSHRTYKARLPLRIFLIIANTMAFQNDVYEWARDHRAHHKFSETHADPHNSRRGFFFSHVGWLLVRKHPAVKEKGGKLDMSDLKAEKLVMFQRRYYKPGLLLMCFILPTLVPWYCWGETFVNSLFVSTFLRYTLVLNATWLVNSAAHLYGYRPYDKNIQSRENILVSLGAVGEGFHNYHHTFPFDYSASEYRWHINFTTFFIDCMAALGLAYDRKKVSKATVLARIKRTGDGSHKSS
The series can be described thus: Conversion of [14C]-18:0-CoA to [14C]-18:1-CoA by reconstituted complexes of recombinant mSCD1 with cyt b5 and cyt b5 reductase. The class given is biochemical.

The test system of series [1] is OLE1 deficient yeast strain L8-14C. The class given is cell-based, Saccharomyces cerevisiae. The following applies: galactose minimal medium without unsaturated fatty acids, plus grades not defined.

B1: hSCD1-wt: human SCD1 wild-type construct expressed in yeast L8-14C (protein, UniProt O00767 1-359, looked up)
Stearoyl-CoA desaturase: MPAHLLQDDISSSYTTTTTITAPPSRVLQNGGDKLETMPLYLEDDIRPDIKDDIYDPTYKDKEGPSPKVEYVWRNIILMSLLHLGALYGITLIPTCKFYTWLWGVFYYFVSALGITAGAHRLWSHRSYKARLPLRLFLIIANTMAFQNDVYEWARDHRAHHKFSETHADPHNSRRGFFFSHVGWLLVRKHPAVKEKGSTLDLSDLEAEKLVMFQRRYYKPGLLMMCFILPTLVPWYFWGETFQNSVFVATFLRYAVVLNATWLVNSAAHLFGYRPYDKNISPRENILVSLGAVGEGFHNYHHSFPYDYSASEYRWHINFTTFFIDCMAALGLAYDRKKVSKAAILARIKRTGDGNYKSG
Turning to B1, in the series with transgenic L8-14C, the “Ratio 18:1/16:1” value stood at 0.63, the “16:0” value is listed as 61.87 percentage, the “16:1” value was determined as 23.22 percentage and the “18:0” value stood at 9.40 percentage. Also, in the series with transgenic L8-14C, the “18:1” value was 14.65 percentage.

B2: mSCD1 only: recombinant mSCD1 prepared as yeast microsomes, no exogenous cyt b5 or reductase (protein, UniProt P13516 1-355, looked up)
Acyl-CoA desaturase 1: MPAHMLQEISSSYTTTTTITAPPSGNEREKVKTVPLHLEEDIRPEMKEDIHDPTYQDEEGPPPKLEYVWRNIILMVLLHLGGLYGIILVPSCKLYTCLFGIFYYMTSALGITAGAHRLWSHRTYKARLPLRIFLIIANTMAFQNDVYEWARDHRAHHKFSETHADPHNSRRGFFFSHVGWLLVRKHPAVKEKGGKLDMSDLKAEKLVMFQRRYYKPGLLLMCFILPTLVPWYCWGETFVNSLFVSTFLRYTLVLNATWLVNSAAHLYGYRPYDKNIQSRENILVSLGAVGEGFHNYHHTFPFDYSASEYRWHINFTTFFIDCMAALGLAYDRKKVSKATVLARIKRTGDGSHKSS
modifications: yeast microsomes
notes: recombinant mSCD1 prepared as yeast microsomes, no exogenous cyt b5 or reductase
As for B2, in the series with mSCD1 (18:0-CoA to 18:1-CoA, single trial of duplicate), the “% conversion” value was 5.40% and 5.55%. Also, the “Correction by subtraction of background” value in the series with mSCD1 (average conversion minus background) is reported as 3.47%. The average conversion with mSCD1 (mean of duplicate trials) is given as 5.48%. In the series with mSCD1 (single trial of duplicate), the “cpm 18:1-CoA” value is 1626 cpm and 1743 cpm; the total cpm is 30,094 cpm and 31,416 cpm. Besides, in the series with mSCD1 (single trial of duplicate, mSCD1 yeast microsomes, cyt b5 and cyt b5 reductase from E. coli), the “cpm 18:0-CoA” value is 28,468 cpm and 29,673 cpm.

B3: hSCD5-wt: human SCD5 wild-type construct expressed in yeast L8-14C (protein, UniProt Q86SK9 1-330, looked up)
Stearoyl-CoA desaturase 5: MPGPATDAGKIPFCDAKEEIRAGLESSEGGGGPERPGARGQRQNIVWRNVVLMSLLHLGAVYSLVLIPKAKPLTLLWAYFCFLLAALGVTAGAHRLWSHRSYRAKLPLRIFLAVANSMAFQNDIFEWSRDHRAHHKYSETDADPHNARRGFFFSHIGWLFVRKHRDVIEKGRKLDVTDLLADPVVRIQRKYYKISVVLMCFVVPTLVPWYIWGESLWNSYFLASILRYTISLNISWLVNSAAHMYGNRPYDKHISPRQNPLVALGAIGEGFHNYHHTFPFDYSASEFGLNFNPTTWFIDFMCWLGLATDRKRATKPMIEARKARTGDSSA
Turning to B3, in the series on transgenic L8-14C, the “Ratio 18:1/16:1” value stood at 3.39, the “16:0” value was determined as 45.032 percentage, the “16:1” value came out at 8.90 percentage and the “18:0” value was found to be 7.73 percentage. Also, in the series with transgenic L8-14C, the “18:1” value worked out at 30.20 percentage.

B4: hSCD5-6xH: human SCD5 construct with 6xHis tag expressed in yeast L8-14C (protein, UniProt Q86SK9 1-330, looked up)
Stearoyl-CoA desaturase 5: MPGPATDAGKIPFCDAKEEIRAGLESSEGGGGPERPGARGQRQNIVWRNVVLMSLLHLGAVYSLVLIPKAKPLTLLWAYFCFLLAALGVTAGAHRLWSHRSYRAKLPLRIFLAVANSMAFQNDIFEWSRDHRAHHKYSETDADPHNARRGFFFSHIGWLFVRKHRDVIEKGRKLDVTDLLADPVVRIQRKYYKISVVLMCFVVPTLVPWYIWGESLWNSYFLASILRYTISLNISWLVNSAAHMYGNRPYDKHISPRQNPLVALGAIGEGFHNYHHTFPFDYSASEFGLNFNPTTWFIDFMCWLGLATDRKRATKPMIEARKARTGDSSA
modifications: C-terminal 6xHis tag
notes: human SCD5 construct with 6xHis tag expressed in yeast L8-14C
As for B4, in the series on transgenic L8-14C, the “Ratio 18:1/16:1” value was determined as 3.73, the “16:0” value was determined as 56.64 percentage, the “16:1” value turned out to be 6.70 percentage and the “18:0” value is 10.79 percentage. Further, the “18:1” value with transgenic L8-14C worked out at 25.70 percentage.

B5: mSCD4: mouse stearoyl-CoA desaturase isoform 4, cloned from heart, expressed in yeast (protein, UniProt Q6T707 1-353, looked up)
Stearoyl-CoA desaturase 4: MTAHLPQEISSRCSTTNIMEPHSRRQQDGEEKMPLQAEDIRPEIKDDLYDPSYQDEEGPPPKLEYVWRNIIFMALLHVGALYGITLVPSCKVYTWLLGVFYNVVAGLGITAGAHRLWSHRTYKARLPLRIFLIMANTMAFQNDVYEWARDHRAHHKFSETHADPHNSRRGFFFSHVGWLLVRKHPAVKEKGKNLDMSDLKAEKLVMFQRRYYKLAVTLMFIILPTLVPWYLWGETFQHSLCVSNFLRYAVLLNFTWLVNSAAHLYGYRPYDRGIGARENPFVSMASLGEGFHNYHHTFPYDYSVSEYRWHINFTTFFIDCMAALGLAYDRKKVSKAVVLARIKRTGDGSHKSS
For the molecule B5, in series [1], the In vivo activity result was “Not active”.
